The text below walks through data of US10487307B2, “Culture method for pluripotent stem cells” (FUJIFILM CORPORATION, priority 2013, dated 2019).

Data set [1] can be described thus: Aggregation after dialysis of purified polypeptide solution. Format: physicochemical. The arrangement: key: G: The formation of an aggregate was not observed.; A: The formation of particles having a particle size of about 100 nm was observed.; B: The formation of an aggregation of particles having a particle size of equal to or greater than 1 mm was visually observed. The procedure: For RCP-1 to RCP-11, each of the purified polypeptide solutions was dialyzed using Slide-A-Lizer (3.5 K MWCO.). Basically, by using a dialysis buffer (PBS, 1.5 M NaCl, 0.5 M L-arginine, 1 mM EDTA, pH 7.4) as an outer dialysate, urea was removed by stepwise dialysis. The concentration of the end-product of dialysis was calculated from the absorbence at 280 nm by using NanoDrop (Thermo Fisher Scientific Inc.).
Whether or not aggregation was occurred was evaluated based on the scale of A, and B as shown below.
G: The formation of an aggregate was not observed.
A: The formation of particles having a particle size of about 100 nm was observed.
B: The formation of an aggregation of particles having a particle size of equal to or greater than 1 mm was visually observed.

The next data set relates to human iPS cells ("Tic"). The experiment in a line: Cell adhesiveness evaluation 1 (ALP activity of adhesive iPS cells). Format: cell-based. Conditions: 30,000 cells/well, 24 hours, n=3. How it is done: The cell adhesiveness of human iPS cells (“Tic”: Cell No. JCRB 1331: from National Institute of Biomedical Innovation. [567-0085, 7-6-8 Asagi Saito Ibaraki-City Osaka]) with respect to the aforementioned polypeptides was evaluated in the following manner.
As feeder cells for retaining the human iPS cells, EmbryoMax (registered trademark) (early mouse embryonic fibroblasts: resistant to hygromycin, treated with mitomycin C, derived from C57/BL6, third passage) (Millipore Corporation) was used. By using DMEM (Invitrogen) and a 10% (v/v) fetal bovine serum medium, the feeder cells were cultured for 24 hours and attached to a T25 flask (Corning Incorporated). As a medium for the human iPS cells, the one obtained by adding FGF-2 (Sigma-Aldrich Co, LLC.) to a medium composed as shown in Table 6 at a final concentration of 10 ng/ml was used.
By using the aforementioned medium, the human iPS cells were retained and cultured in a 5% (v/v, the same unit will be used hereinafter) CO2 incubator at 37° C. Except for the day after the seeding of the iPS cells, the medium was replaced every day. The subculture operation was performed by exfoliating the cells by using Dispase II (neutral protease Grade II, Roche) and separating the cells in an appropriate size by a pipetting operation.
The iPS cells cultured as described above were treated with TrypLE Select (Invitrogen) for 5 minutes at 37° C. and separated into a single cell. After being subjected to centrifugation for 2 minutes at 300 rpm, the cells were collected and suspended in TeSR2 (a medium not containing a heterogeneous animal-derived component and a serum component, STEMCELL Technologies.) containing Y-27362 ((R)-(+)-trans-N-(4-pyridyl)-4-(1-aminoethyl)-cyclohexane carboxamide.2HCl.H2O, an Rho binding kinase inhibitor, Wako Pure Chemical Industries, Ltd.) at a final concentration of 10 μM.
Each of RCP-1 to RCP-11, RCP-21, RCP-25, and RCP-26 as control, human vitronectin (extracted from human serum, BD Biosciences), and recombinant laminin (rLaminin-5: Oriental Yeast Co., ltd. and Human Recombinant Laminin-511: BIOLAMINA AB) was added to and suspended in a predetermined buffer (a dialysis buffer used in <GRAVY value and aggregation characteristics> described above for RCP-1 to RCP-11, and PBS for RCP-21, RCP-25, human vitronectin, and recombinant laminin) at the concentration shown in Table 7, thereby preparing samples 1 to 17. The samples were added to the respective wells of a 96-well plate and adsorbed onto the plate by being held for 2 hours at 37° C.
Into the respective wells of the 96-well plate treated with the peptides, iPS cells were seeded at a cell density of 30,000 cells/well. After the cells were cultured for 24 hours, the nonadhesive cells were washed off with PBS, and only the adhesive cells were immobilized by using 4% (v/v) paraformaldehyde (Wako Pure Chemical Industries, Ltd.). By using an Attophos (registered trademark) AP Fluorescent Substrate System (Promega Corporation), the ALP activity was calculated, and from the calibration curve, the number of undifferentiated iPS cells having the ALP activity was calculated. In Table 7, the cell adhesion rate is expressed as a ratio calculated by regarding the cell adhesion rate obtained from the sample 15 using natural vitronectin as being 100%. n=3.

Data set [2] relates to iPS cells. Kind of data set: Growth evaluation, number of cells after 3 days. Format: cell-based, human. Conditions: added amount 20 μg/cm^2; 5,000 cells/well; sample 1 (RCP-1) = 100%. How it is done: By adding RCP-1 to RCP-11 and Human Recombinant Laminin-511 as control at the concentration shown in Table 9, samples 1 to 12 were prepared. The samples were seeded into a 96-well plate, onto which each of the polypeptides was adsorbed in the same manner as in <Cell adhesiveness evaluation 1>, at a ratio of 5,000 cells/well and cultured for 3 days in a CO2 incubator at 37° C. The number of cells after 3 days was calculated in the same manner as in <Cell adhesiveness evaluation 1>. In Table 9, the number of cells after 3 days is expressed as a ratio calculated by regarding the number of cells obtained by using the sample 1 as being 100%.

Data set [3] relates to iPS cells. Kind of data set: Cell adhesiveness evaluation 3 (RCP-1 added amount). To be noted: added amount 130 pmol/cm^2; this surface = 100%; n=3. In kind it is cell-based, human. The procedure:
The cell adhesiveness was evaluated in the same manner as in <Cell adhesiveness evaluation 1>, except that RCP-1 was used after the concentration thereof was adjusted to 125 pmol/cm^2 to 1,000 pmol/cm^2 by using PBS. In Table 10, the cell adhesion rate is expressed as a ratio calculated by regarding a cell adhesion rate with respect to the cell culture surface, onto which natural vitronectin is adsorbed at a concentration of 130 pmol/cm^2, as being 100%. n=3.

Data set [4] concerns iPS cells. Kind of data set: Evaluation of maintenance of undifferentiated state (reference examples). In kind it is cell-based, human. The procedure: iPS cells collected in the same manner as in <Cell adhesiveness evaluation 1> were suspended in TeSR2. The iPS cells were seeded into 6-well plate (Tissue culture-treated, Falcon), onto which each of the samples 1, 2, 5, 6, and 7 used in <Cell adhesiveness evaluation 1> was adsorbed in the same manner as in <Cell adhesiveness evaluation 1>, and cultured in a CO2 incubator at 37° C. Except for the day after the seeding, the medium was replaced every day. In the same method as described above, the cells were subcultured every six days.
After being cultured for 1 month under the conditions described above, the cells were immobilized using 4% paraformaldehyde and treated with 1% Triton-X/PBS so as to enhance the membrane permeability. After the cells were subjected to a blocking treatment using an Image IT Signal Enhancer (Invitrogen), an anti-human NANOG antibody (AF 1997, R&D Systems, Inc.), an Alexa Fluor 555 binding rabbit anti-goat IgG antibody (Invitrogen), and DAPI (4′,6-diamidino-2-phenylindole, Dojindo Molecular Technologies, Inc.) were added thereto for labeling, and the cells were imaged using a fluorescence microscope.
FIGS. 3A and 4A show the iPS cells cultured on RCP-1; FIGS. 3B and 4B show the iPS cells cultured on RCP-11; FIGS. 3C and 4C show the iPS cells cultured on natural human vitronectin; FIGS. 3D and 4D show the iPS cells cultured on rLaminin-5; and FIGS. 3E and 4E show the iPS cells cultured on rLaminin-511. The scale bar in the images indicates […]. In FIGS. 3A to 3E, the images on the left side are full images of the colony, and the images on the right side are magnified images. In FIGS. 4A to 4E, the images on the left side are images of the cells stained with DAPI, and the images on the right side are images of the cells stained with an anti-NANOG antibody. The scale bar in FIGS. 3A to 4E indicates 200 μm.

The mark [5] stands for this setting: added amount 20 μg/cm^2, natural vitronectin (sample 15) = 100%.

B1: RCP-6: recombinant polypeptide for culture, SEQ ID NO: 20; vitronectin positions 1-55, 269-459, C274S (protein)
chain: MDQESCKGRCTEGFNVDKKCQCDELCSYYQSCCTDYTAECKPQVTRGDVFTMPEDESQEESEGSSLSAVFEHFAMMQRDSWEDIFELLFWGRTSAGTRQPQFISRDWHGVPGQVDAAMAGRIYISGMAPRPSLAKKQRFRHRNRKGYRSQRGHSRGRNQNSRRPSRATWLSLFSSEESNLGANNYDDYRMDWLVPATSEPIQSVFFFSGDKYYRVNLRTRRVDTVDPPYPRSIAQYWLGSPAPGHL
modifications: Vitronectin-derived Recombinant Protein (RCP-6)
notes: vitronectin positions 1-55, 269-459, C274S
As to B1, the Aggregation entry in data set [1] is given as “A”. Further, in the data set with human iPS cells ("Tic") (setting [5]), the “Cell adhesion rate (%)” value worked out at 92.8 ± 4.4%. Besides, in the data set with iPS cells [2], the “Number of cells after 3 days (%)” value stood at 70.5%.

B2: RCP-3: recombinant polypeptide for culture, SEQ ID NO: 17; vitronectin positions 1-55, 322-341, 342-373 (protein)
chain: MDQESCKGRCTEGFNVDKKCQCDELCSYYQSCCTDYTAECKPQVTRGDVFTMPEDEGVPGQVDAAMAGRIYISGMAPRPSLAKKQRFRHRNRKGYRSQRGHSRGRNQN
modifications: Vitronectin-derived Recombinant Protein (RCP-3)
Regarding B2, the Aggregation entry in data set [1] is listed as “G”. Further, the “Cell adhesion rate (%)” value in the data set with human iPS cells ("Tic") (setting [5]) is 106.1 ± 4.5%. Moreover, the “Number of cells after 3 days (%)” value with iPS cells [2] is 109.7%.

B3: RCP-10: recombinant polypeptide for culture, SEQ ID NO: 24; vitronectin positions 1-55, 269-373, 374-399, C274S (protein)
chain: MDQESCKGRCTEGFNVDKKCQCDELCSYYQSCCTDYTAECKPQVTRGDVFTMPEDESQEESEGSSLSAVFEHFAMMQRDSWEDIFELLFWGRTSAGTRQPQFISRDWHGVPGQVDAAMAGRIYISGMAPRPSLAKKQRFRHRNRKGYRSQRGHSRGRNQNSRRPSRATWLSLFSSEESNLGANNYD
modifications: Vitronectin-derived Recombinant Protein (RCP-10)
notes: vitronectin positions 1-55, 269-373, 374-399, C274S
In the case of B3, the Aggregation result in data set [1] is “B (The formation of an aggregation of particles having a particle size of equal to or greater than 1 mm was visually observed.)”. Further, the “Cell adhesion rate (%)” value with human iPS cells ("Tic") (setting [5]) was determined as 93.0 ± 7.8%. Besides, the “Number of cells after 3 days (%)” value in the data set on iPS cells [2] is 101.9%.

B4: RCP-2: recombinant polypeptide for culture, SEQ ID NO: 16; vitronectin positions 1-55 and 342-373 (protein)
chain: MDQESCKGRCTEGFNVDKKCQCDELCSYYQSCCTDYTAECKPQVTRGDVFTMPEDEPRPSLAKKQRFRHRNRKGYRSQRGHSRGRNQN
modifications: Vitronectin-derived Recombinant Protein (RCP-2)
As to B4, the Aggregation entry in data set [1] is “G”. For the same molecule, in the data set on human iPS cells ("Tic") (setting [5]), the “Cell adhesion rate (%)” value was determined as 98.7 ± 6.2%. Moreover, in the data set on iPS cells [2], the “Number of cells after 3 days (%)” value is reported as 81.7%.

B5: RCP-4: recombinant polypeptide for culture, SEQ ID NO: 18; vitronectin positions 1-55, 312-341, 342-373 (protein)
chain: MDQESCKGRCTEGFNVDKKCQCDELCSYYQSCCTDYTAECKPQVTRGDVFTMPEDEQPQFISRDWHGVPGQVDAAMAGRIYISGMAPRPSLAKKQRFRHRNRKGYRSQRGHSRGRNQN
modifications: Vitronectin-derived Recombinant Protein (RCP-4)
On to B5, for which the Aggregation entry in data set [1] is “G”. In the data set with human iPS cells ("Tic") (setting [5]), the “Cell adhesion rate (%)” value stood at 100.1 ± 4.5%. Further, in the data set on iPS cells [2], the “Number of cells after 3 days (%)” value is recorded as 120.7%.

B6: Natural vitronectin: human vitronectin (extracted from human serum, BD Biosciences) (protein, listed as Homo sapiens)
chain: DQESCKGRCTEGFNVDKKCQCDELCSYYQSCCTDYTAECKPQVTRGDVFTMPEDEYTVYDDGEEKNNATVHEQVGGPSLTSDLQAQSKGNPEQTPVLKPEEEAPAPEVGASKPEGIDSRPETLHPGRPQPPAEEELCSGKPFDAFTDLKNGSLFAFRGQYCYELDEKAVRPGYPKLIRDVWGIEGPIDAAFTRINCQGKTYLFKGSQYWRFEDGVLDPDYPRNISDGFDGIPDNVDAALALPAHSYSGRERVYFFKGKQYWEYQFQHQPSQEECEGSSLSAVFEHFAMMQRDSWEDIFELLFWGRTSAGTRQPQFISRDWHGVPGQVDAAMAGRIYISGMAPRPSLAKKQRFRHRNRKGYRSQRGHSRGRNQNSRRPSRATWLSLFSSEESNLGANNYDDYRMDWLVPATCEPIQSVFFFSGDKYYRVNLRTRRVDTVDPPYPRSIAQYWLGCPAPGHL
modifications: glycosylated
As for B6, the “Cell adhesion rate (%)” value in the data set with human iPS cells ("Tic") (added amount 130 pmol/cm^2, this sample = 100%) was 100 ± 5.5%; in the data set with iPS cells [3], 100 ± 5.5%. Moreover, the “form of iPS cell colony” value in the data set with iPS cells [4] (TeSR2, subcultured every six days, FIGS. 3A to 3E) is reported as “form specific to undifferentiated cells”. The “NANOG expression” value in the data set with iPS cells [4] (cultured for 1 month in TeSR2, anti-NANOG staining, FIGS. 4A to 4E) was “strongly expressed NANOG in the entirety of the colony”.
